Results as given in US20260151499A1 (TSINGHUA UNIVERSITY, published 2026).

Tests used:
CD73 protein [1] = molecular target: T1, CD73 protein (UniProt P21589 27-549); experiment: Octet BLI; Ab-BN3 on protein A sensors, CD73 in solution
T1 construct: also called CD73-biotin
T1 sequence (looked up): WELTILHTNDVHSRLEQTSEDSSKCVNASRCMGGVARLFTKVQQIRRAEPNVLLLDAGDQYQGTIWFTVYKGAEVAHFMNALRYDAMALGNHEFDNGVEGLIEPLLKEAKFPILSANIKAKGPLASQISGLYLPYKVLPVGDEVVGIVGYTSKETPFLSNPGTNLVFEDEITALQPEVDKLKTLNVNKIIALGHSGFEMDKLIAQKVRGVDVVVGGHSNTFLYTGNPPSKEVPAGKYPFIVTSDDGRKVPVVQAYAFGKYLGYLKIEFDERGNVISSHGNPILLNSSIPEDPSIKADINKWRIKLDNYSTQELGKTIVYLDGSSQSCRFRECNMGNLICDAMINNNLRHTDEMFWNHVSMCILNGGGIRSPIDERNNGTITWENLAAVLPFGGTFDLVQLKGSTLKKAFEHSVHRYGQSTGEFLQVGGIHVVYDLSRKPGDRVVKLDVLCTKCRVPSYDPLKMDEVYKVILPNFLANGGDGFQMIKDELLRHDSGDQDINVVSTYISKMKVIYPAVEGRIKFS

CD73 protein [2] = molecular target: T1, CD73 protein; experiment: cell-based or functional assay
NaV1.2 = NaV1.2 (UniProt Q99250 1-2005); experiment: cell-based or functional assay
Chain of NaV1.2 (Q99250 whole entry): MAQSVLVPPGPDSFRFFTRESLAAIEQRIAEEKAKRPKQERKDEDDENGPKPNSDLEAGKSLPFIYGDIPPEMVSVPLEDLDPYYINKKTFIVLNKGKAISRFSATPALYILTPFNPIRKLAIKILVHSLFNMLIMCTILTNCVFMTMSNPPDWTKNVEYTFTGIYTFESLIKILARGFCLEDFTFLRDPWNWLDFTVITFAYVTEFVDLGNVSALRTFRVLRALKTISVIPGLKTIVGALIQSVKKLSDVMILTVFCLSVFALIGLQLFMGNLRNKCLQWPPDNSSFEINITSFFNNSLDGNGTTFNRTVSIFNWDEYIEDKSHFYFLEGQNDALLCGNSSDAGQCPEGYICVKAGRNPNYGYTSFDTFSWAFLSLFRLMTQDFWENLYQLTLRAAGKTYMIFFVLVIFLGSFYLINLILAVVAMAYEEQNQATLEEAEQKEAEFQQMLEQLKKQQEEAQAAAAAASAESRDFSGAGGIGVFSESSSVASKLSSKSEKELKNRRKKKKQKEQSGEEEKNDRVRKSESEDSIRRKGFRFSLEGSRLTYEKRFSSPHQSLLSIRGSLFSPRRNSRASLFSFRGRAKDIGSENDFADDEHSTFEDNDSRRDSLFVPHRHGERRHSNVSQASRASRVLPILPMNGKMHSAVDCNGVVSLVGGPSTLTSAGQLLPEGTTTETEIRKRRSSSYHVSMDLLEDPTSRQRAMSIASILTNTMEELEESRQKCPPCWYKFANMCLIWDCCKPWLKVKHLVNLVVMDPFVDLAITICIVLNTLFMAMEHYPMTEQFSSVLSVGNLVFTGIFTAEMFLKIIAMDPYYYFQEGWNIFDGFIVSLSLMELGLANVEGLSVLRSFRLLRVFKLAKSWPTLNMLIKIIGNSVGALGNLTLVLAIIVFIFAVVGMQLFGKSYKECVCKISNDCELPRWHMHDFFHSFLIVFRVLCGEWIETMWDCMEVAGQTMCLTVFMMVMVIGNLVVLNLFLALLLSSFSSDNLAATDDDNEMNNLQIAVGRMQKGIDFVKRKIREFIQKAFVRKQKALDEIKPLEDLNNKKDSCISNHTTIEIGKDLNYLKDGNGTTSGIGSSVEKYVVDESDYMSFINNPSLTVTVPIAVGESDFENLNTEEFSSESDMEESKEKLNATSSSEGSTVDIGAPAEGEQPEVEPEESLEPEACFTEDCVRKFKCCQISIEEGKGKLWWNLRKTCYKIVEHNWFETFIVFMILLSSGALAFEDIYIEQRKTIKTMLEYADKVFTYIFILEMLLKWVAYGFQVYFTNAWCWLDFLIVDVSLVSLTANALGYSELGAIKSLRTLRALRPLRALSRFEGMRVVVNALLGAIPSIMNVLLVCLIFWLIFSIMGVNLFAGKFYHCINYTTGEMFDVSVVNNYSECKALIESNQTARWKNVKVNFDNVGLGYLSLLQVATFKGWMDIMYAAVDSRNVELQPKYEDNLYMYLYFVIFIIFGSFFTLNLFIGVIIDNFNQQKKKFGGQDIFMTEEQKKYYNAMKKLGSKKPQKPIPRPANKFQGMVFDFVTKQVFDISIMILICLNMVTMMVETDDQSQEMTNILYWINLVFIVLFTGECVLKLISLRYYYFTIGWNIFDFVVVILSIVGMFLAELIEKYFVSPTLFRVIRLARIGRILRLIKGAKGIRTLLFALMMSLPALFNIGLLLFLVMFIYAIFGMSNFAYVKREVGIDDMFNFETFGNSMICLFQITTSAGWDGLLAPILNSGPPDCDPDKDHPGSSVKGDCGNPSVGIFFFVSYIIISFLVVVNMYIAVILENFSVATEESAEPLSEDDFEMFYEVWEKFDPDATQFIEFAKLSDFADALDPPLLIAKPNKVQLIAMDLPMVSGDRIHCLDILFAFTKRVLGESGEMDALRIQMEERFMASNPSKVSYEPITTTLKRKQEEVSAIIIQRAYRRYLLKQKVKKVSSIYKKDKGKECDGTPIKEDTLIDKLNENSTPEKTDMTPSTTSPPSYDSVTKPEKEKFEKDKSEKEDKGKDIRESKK

NaV1.7 = NaV1.7 (UniProt Q15858 1-1988); experiment: cell-based or functional assay
Chain of NaV1.7 (Q15858 whole entry): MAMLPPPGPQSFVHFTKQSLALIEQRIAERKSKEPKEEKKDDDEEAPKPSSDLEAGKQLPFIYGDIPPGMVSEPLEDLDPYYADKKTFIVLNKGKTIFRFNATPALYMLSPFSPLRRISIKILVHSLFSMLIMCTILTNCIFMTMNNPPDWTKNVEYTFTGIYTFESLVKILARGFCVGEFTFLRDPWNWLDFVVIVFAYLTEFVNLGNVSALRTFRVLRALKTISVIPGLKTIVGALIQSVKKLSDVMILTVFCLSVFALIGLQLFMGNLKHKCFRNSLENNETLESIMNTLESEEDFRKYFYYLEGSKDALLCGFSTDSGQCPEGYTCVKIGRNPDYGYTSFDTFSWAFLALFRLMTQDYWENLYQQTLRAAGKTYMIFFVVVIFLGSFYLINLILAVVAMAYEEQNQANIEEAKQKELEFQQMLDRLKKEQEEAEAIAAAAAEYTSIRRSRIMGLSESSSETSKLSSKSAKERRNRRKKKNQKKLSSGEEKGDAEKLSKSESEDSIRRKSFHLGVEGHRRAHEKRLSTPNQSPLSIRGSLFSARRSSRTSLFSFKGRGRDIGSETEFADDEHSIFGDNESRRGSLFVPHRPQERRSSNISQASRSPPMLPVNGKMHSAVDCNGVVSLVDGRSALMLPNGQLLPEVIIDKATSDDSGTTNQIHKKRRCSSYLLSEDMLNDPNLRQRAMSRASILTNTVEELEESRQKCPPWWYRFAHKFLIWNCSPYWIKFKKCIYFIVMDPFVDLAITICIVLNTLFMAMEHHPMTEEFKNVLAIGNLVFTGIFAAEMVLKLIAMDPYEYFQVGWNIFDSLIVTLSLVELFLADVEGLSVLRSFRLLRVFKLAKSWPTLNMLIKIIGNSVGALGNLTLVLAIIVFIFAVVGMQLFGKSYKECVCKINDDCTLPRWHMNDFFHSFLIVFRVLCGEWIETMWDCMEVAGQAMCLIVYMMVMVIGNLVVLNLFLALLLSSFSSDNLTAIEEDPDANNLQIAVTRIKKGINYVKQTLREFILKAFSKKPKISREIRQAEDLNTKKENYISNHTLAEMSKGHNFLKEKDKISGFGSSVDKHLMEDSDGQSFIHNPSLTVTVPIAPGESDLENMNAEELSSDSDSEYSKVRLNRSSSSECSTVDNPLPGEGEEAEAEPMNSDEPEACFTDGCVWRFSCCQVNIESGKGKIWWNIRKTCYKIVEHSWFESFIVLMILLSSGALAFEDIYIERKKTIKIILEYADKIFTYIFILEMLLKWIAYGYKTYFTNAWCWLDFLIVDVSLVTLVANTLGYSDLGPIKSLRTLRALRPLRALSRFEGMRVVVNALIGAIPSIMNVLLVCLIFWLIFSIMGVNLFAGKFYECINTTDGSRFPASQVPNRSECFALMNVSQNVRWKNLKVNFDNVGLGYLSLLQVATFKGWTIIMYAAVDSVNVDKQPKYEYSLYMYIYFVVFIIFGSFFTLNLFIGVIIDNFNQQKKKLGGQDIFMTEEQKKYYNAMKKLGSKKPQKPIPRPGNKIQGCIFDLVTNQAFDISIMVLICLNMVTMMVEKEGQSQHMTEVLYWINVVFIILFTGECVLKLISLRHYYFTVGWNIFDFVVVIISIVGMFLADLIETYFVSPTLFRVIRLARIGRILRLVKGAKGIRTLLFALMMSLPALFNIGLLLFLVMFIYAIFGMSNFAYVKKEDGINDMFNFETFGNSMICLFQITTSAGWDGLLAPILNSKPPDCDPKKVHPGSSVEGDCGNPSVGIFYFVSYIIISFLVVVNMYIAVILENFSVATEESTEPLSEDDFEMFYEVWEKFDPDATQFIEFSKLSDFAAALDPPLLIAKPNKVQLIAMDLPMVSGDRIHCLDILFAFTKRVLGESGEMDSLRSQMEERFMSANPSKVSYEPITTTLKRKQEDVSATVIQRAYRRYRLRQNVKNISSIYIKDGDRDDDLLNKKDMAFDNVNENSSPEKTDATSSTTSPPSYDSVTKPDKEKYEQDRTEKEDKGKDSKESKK

CD73 protein [3] = molecular target: T1, CD73 protein; experiment: cell-based or functional assay; remark: listed apart in the source

B1: 10A7-BN3 (antibody, V domains shown)
VH: EVQLVESGGGLVQPGGSLRLSCAASGFAFSSYSMSWVRQAPGKGLEWIGSIYYSGSTYYNPSLKSRVTISADTSKNTAYLQMNSLRAEDTAVYYCARNSGFETLDYWGQGTLVTVSS
VL: DIQMTQSPSSLSASVGDRVTITCRASQGISRWLAWYQQKPGKAPNLLIYGASTLQSGVPPRFSGSRSGTDFTLTISSLQPEDFATYYCQQXYTTPPTFGQGTKLEI
modifications: position marked * in QQ*YTTPPT (light chain residue 91): unnatural amino acid (UAA) with azide, conjugated to BN3 (PSB12379-PEG3-DBCO)
notes: also called 10A7 Ab-BN3
In the case of B1, the Kd (CD73 protein [1]) is reported as 0.888 nM, the koff (CD73 protein [1]) is reported as 0.000191 s⁻¹ and the kon (CD73 protein [1]) is reported as 215000 M⁻¹ s⁻¹. For the same binder, the “IC90 of inhibition of CD73 (malachite green phosphate assay)” value (“IC90 of inhibition of CD73” below) (CD73 protein [2]) was 2.92 nM.

B2: 10D8-BN3 (antibody, V domains shown)
VH: EVQLVESGGGLVQPGGSLRLSCAASGFTFSTYAIHWVRQAPGKGLEWVSSISGSGGGGGTYYADSVKGRFTISADTSKNTAYLQMNSLRAEDTAVYYCARDRGFLQFDYWGQGTLVTVSS
VL: DIQMTQSPSSLSASVGDRVTITCRASQSISSWLAWYQQKPGKAPKLLIYDVSNVQTGVPSRFSGSRSGTDFTLTISSLQPEDFATYYCQQXYTTPPTFGQGTKLEI
modifications: position marked * in QQ*YTTPPT (light chain residue 91): unnatural amino acid (UAA) with azide, conjugated to BN3 (PSB12379-PEG3-DBCO)
notes: also called 10D8 Ab-BN3
B2 was tested, and the Kd (CD73 protein [1]) was 1.35 nM, the koff (CD73 protein [1]) was 0.000275 s⁻¹ and the kon (CD73 protein [1]) was 204000 M⁻¹ s⁻¹. The “IC90 of inhibition of CD73” value (CD73 protein [2]) was over 100 nM.

B3: 14E6-PEG3-ASF (antibody, V domains shown)
VH: EVQLVESGGGLVQPGGSLRLSCAASGFTFSNFAMHWVRQAPGKGLEYVSAISGGNGGGTYYADSAKGRFTISADTSKNTAYLQMNSLRAEDTAVYYCAREGNYCLDYWGQGTLVTVSS
VL: DIQMTQSPSSLSASVGDRVTITCRASQPISDWLAWYQQKPGKAPKSLIYDAYNLQSGVPPRFSGSRSGTDFTLTISSLQPEDFATYYCQQXYTTPPTFGQGTKLEI
modifications: position marked * in QQ*YTTPPT (light chain residue 91): unnatural amino acid (UAA) with azide, conjugated to ASF-PEG3-DBCO
B3 was tested, and the “IC50 on HEK293-NaV1.2 cells” value (NaV1.2) was 5.02 nM.

B4: 14H4-PEG3-ASF (antibody, V domains shown)
VH: EVQLVESGGGLVQPGGSLRLSCAASGFSFSKFWMHWVRQAPGKGLEWVAFMAHDESNKNYADSVKGRFTISADTSKNTAYLQMNSLRAEDTAVYYCARDKVCNTFDIWGQGTLVTVSS
VL: DIQMTQSPSSLSASVGDRVTITCRASQSISSDLNWYQQKPGKAPKLLIYRATFLESGVPSRFSGSRSGTDFTLTISSLQPEDFATYYCQQXYTTPPTFGQGTKLEI
modifications: position marked * in QQ*YTTPPT (light chain residue 91): unnatural amino acid (UAA) with azide, conjugated to ASF-PEG3-DBCO
For B4, the “IC50 on HEK293-NaV1.2 cells” value (NaV1.2) was 2.73 nM and the “IC50 on HEK293-NaV1.7 cells, by curve fitting” value (NaV1.7) was over 500 nM.

B5: 10A7-Fab-BN3 (Fab, V domains shown)
VH: EVQLVESGGGLVQPGGSLRLSCAASGFAFSSYSMSWVRQAPGKGLEWIGSIYYSGSTYYNPSLKSRVTISADTSKNTAYLQMNSLRAEDTAVYYCARNSGFETLDYWGQGTLVTVSS
VL: DIQMTQSPSSLSASVGDRVTITCRASQGISRWLAWYQQKPGKAPNLLIYGASTLQSGVPPRFSGSRSGTDFTLTISSLQPEDFATYYCQQXYTTPPTFGQGTKLEI
modifications: position marked * in QQ*YTTPPT (light chain residue 91): unnatural amino acid (UAA) with azide, conjugated to BN3 (PSB12379-PEG3-DBCO)
For B5, the “IC50 of inhibition of CD73, against that of 10A7-BN3” value (CD73 protein [3]) was ~0.2 fold of the IC50 of 10A7-BN3.

B6: ABN3-2B-BN3 (antibody, V domains shown)
VH: EVQLVESGGGLVQPGGSLRLSCAASGFTFSSYWMHWVRQAPGKGLEWVSAVSGSGDSTYYADSVKGRFTISADTSKNTAYLQMNSLRAEDTAVYYCAREGDWGLDYWGQGTLVTVSS
VL: DIQMTQSPSSLSASVGDRVTITCRASQGINNYLAWYQQKPGKAPKLLIYDASNLETGVPSRFSGSRSGTDFTLTISSLQPEDFATYYCQQXYTTPPTFGQGTKLEI
modifications: not fully specified; position marked * in QQ*YTTPPT (light chain residue 91): unnatural amino acid (UAA) with azide, conjugated to BN3 (PSB12379-PEG3-DBCO)
notes: also called ABN3-2B Ab-BN3; ABN-2B
Binder B6 has a Kd (CD73 protein [1]) of 3.16 nM, a koff (CD73 protein [1]) of 0.000582 s⁻¹ and a kon (CD73 protein [1]) of 185000 M⁻¹ s⁻¹.

B7: ABN3-2G-BN3 (antibody, V domains shown)
VH: EVQLVESGGGLVQPGGSLRLSCAASGITFGSYTMSWVRQAPGKGLEWIGTVHYTGKTFYSPSLKSRVTISADTSKNTAYLQMNSLRAEDTAVYYCARGRDFGEPPYVRAFDIWGQGTLVTVSS
VL: DIQMTQSPSSLSASVGDRVTITCQASHDISKYLNWYQQKPGKAPKLLIYDASNLETGVPSRFSGSRSGTDFTLTISSLQPEDFATYYCQQXYTTPPTFGQGTKLEI
modifications: not fully specified; position marked * in QQ*YTTPPT (light chain residue 91): unnatural amino acid (UAA) with azide, conjugated to BN3 (PSB12379-PEG3-DBCO)
notes: also called ABN3-2G Ab-BN3
B7 showed a Kd (CD73 protein [1]) of 0.887 nM, a koff (CD73 protein [1]) of 0.000271 s⁻¹ and a kon (CD73 protein [1]) of 305000 M⁻¹ s⁻¹. The “IC90 of inhibition of CD73” value (CD73 protein [2]) was 25.9 nM.
